The source of these data is patent publication US7576101B2, “Composition for and treatment of demyelinating diseases and paralysis by administration of remyelinating agents” (Elan Pharmaceuticals, Inc., priority 2003, dated 2009).

Experiment [1] has as its target human α4β1 integrin (human) (UniProt P13612). Kind of experiment: cell-based or functional assay.
The target of experiment [2] is rat α4 integrin on rat lymphocytes (rat). Description: cell-based or functional assay.
Experiment [3] deals with VLA-4 (Homo sapiens, UniProt P13612). Particulars: cited from earlier work.
Experiment [4] has as its system human lymphocyte binding to rat brain cells. Conditions: cited from earlier work.

As for AIIB2 (antibody), in experiment [1], the Relative Binding to EAE Vessels (% of Control), human lymphocytes was 7 % of Control and the Relative Binding to EAE Vessels (% of control), U937 cells is 8 % of control.
For P4G9 (antibody), the Relative Binding to EAE Vessels (% of control), U937 cells in experiment [1] is 151 % of control.
The same measure, in the same setting: in the case of HP1/7 (antibody) it was 338 % of control.
As for HP2/1 (antibody), in experiment [1], the % Input Binding Jurkat, TNFα-stimulated rat brain EC clone worked out at 6 % input; the % Input Binding Ramos, TNFα-stimulated rat brain EC clone amounted to 2 % input; the % Input Binding U937 to VCAM-1 transfected L cells worked out at 3 % input; the % inhibition of Jurkat binding to FN-coated plate was 47 % inhibition. In experiment [1], the % input bound, Jurkat cells on FN-coated plate (% input bound) stood at 42; the % input cells bound, U937 on TNFα-stimulated primary rat brain EC (% input cells bound) is 13; the Binding of U937 cells to inflamed vessels in sections of EAE brain turned out to be 3; the Relative Binding to EAE Vessels (% of Control), human lymphocytes is 1 % of Control. In experiment [1], the Relative Binding to EAE Vessels (% of control), U937 cells is 3 % of control and the Relative Binding to EAE Vessels (% of control), U937 cells, tested at 25° C. was 5 % of control. For the same molecule, the Relative Binding to EAE Vessels (% of Control), rat lymphocytes in experiment [2] was 18 % of Control.

B1: mu MAb 21.6: mouse monoclonal antibody specific for the alpha-4 subunit of VLA-4; donor immunoglobulin for humanization (antibody, V domains shown)
VH: EVQLQQSGAELVKPGASVKLSCTASGFNIKDTYIHCVKQRPEQGLEWIGRIDPANGYTKYDPKFQGKATITADTSSNTAYLQLSSLTSEDTAVYFCAREGYYGNYGVYAMDYWGQGTSVTVSSAK
VL: DIQMTQSPSSLSASLGGKVTITCKTSQDINKYMAWYQHKPGKRPRLLIHYTSALQPGIPSRFSGSGSGRDYSFNISNLEPEDIATYYCLQYDNLWTFGGGTKLEIK
With B1, in experiment [3], the “binding affinity for VLA-4” value is listed as “about 10^9 M^−1”. In addition, the “human lymphocyte binding to tissue cultures of rat brain cells stimulated with tumor necrosis factor” value in experiment [4] is reported as “inhibit”.
